Assay results published in patent US20190218553, “VON WILLEBRAND FACTOR (VWF)-TARGETING AGENTS AND METHODS OF USING THE SAME” (DUKE UNIVERSITY, published 2019).
Positions count from the first letter of the chain named.

B1: T89 vrt4 (ssRNA)
RNA: ACGAACUGCCCUCGUAUUAUUUCGACGCACAGACGU
modifications: 2'-F C9,C10,C11,C26,C28; ribo G27; rest 2'-OMe; 3' idT
B2: T86 vrt6 (ssRNA)
RNA: ACGAACUGCCCUCGUUUCAUCGACGCACAGACGU
modifications: 2'-F C9,C10,C11,C24,G25,C26,U34; rest 2'-OMe; 3' idT
B3: T87 vrt1 (ssRNA)
RNA: ACGAACUGCCCUCUUUCAUGACGCACAGACGU
modifications: 2'-F C2,U7,C9,C10,C11,U12,C22,C24,C30,U32; ribo A1,G3,G8,A21,G23,A25,G31; rest 2'-OMe; 3' idT
B4: T59 vrt21 (ssRNA)
RNA: ACGAACUGCCCUCGAUCGACGCACAGACGU
modifications: 2'-F U7,C9,C10,C11,U12,C20,C22,U30; ribo A23; rest 2'-OMe; 3' idT
B5: T90 vrt4 (ssRNA)
RNA: ACGAACUGCCCUCUAUUAUUUGACGCACAGACGU
modifications: 2'-F C9,C10,C11,C24,C26; ribo G25; rest 2'-OMe; 3' idT
B6: T59 vrt12 (ssRNA)
RNA: B4 RNA
modifications: rAfCrGmAmAmCfUrGfCfCfCfUmCmGmAmUmCmGrAfCrGfCmAmCmAmGmAfCrGfU-idT
B7: T59 vrt29 (ssRNA)
RNA: B4 RNA
modifications: 2'-F C10,C11,C20,C22,U30; ribo G21; rest 2'-OMe; 3' idT
B8: T82 vrt1 (ssRNA)
RNA: ACGAACUGCCCUCGAUCGACGCACAGACGUACCCG
modifications: 2'-F C2,U7,C9,C10,C11,U12,C20,C22,C28,U30; ribo A1,G3,G8,A19,G21,A23,G29; rest 2'-OMe; 3' idT
B9: T93 vrt7 (ssRNA)
RNA: ACGAACUGCCCUCUAUUUCAUUUGACGCACAGACGU
modifications: 2'-F C9,C10,C11,C26,G27,C28; rest 2'-OMe; 3' idT
B10: T59 vrt1 (ssRNA)
RNA: B4 RNA
modifications: rAfCrGmAmAmCfUrGfCfCfCfUmCmGmAmUmCmGrAfCrGfCrAmCmAmGmAfCrGfU-idT
B11: T82 (ssRNA)
RNA: B8 RNA
modifications: 2'-F C and U; 2'-OH A and G; 3' idT
B12: T84 (ssRNA)
RNA: B8 RNA with C33A
modifications: 2'-F C and U; 2'-OH A and G; 3' idT
B13: T93 (ssRNA)
RNA: B9 RNA
modifications: 2'-F C and U; 2'-OH A and G; 3' idT
B14: T59 vrt13 (ssRNA)
RNA: B4 RNA
modifications: rAfCrGmAmAmCfUrGfCfCfCfUmCmGmAmUmCmGrAfCmGfCrAmCmAmGmAfCrGfU-idT
B15: DTRI-022 (ssRNA)
RNA: ACGAAAUGGAAUCGUAAGAACCACAGACGUUUUUU
modifications: all 2'-OMe; 3' idT
B16: T55 (ssRNA)
RNA: ACGACUGCCCUCAGCUACUUUCAUGUUGCUGACGCACACGU
modifications: 2'-F C and U; 2'-OH A and G; 3' idT
B17: T67 (ssRNA)
RNA: ACGAACUGCCCUCGAUUAUUCGACCACAGACGU
modifications: 2'-F C and U; 2'-OH A and G; 3' idT
B18: T19 (ssRNA)
RNA: GGGAGGUGGACGAACUGCCCUCUUUCAUGUUGCUGACGCACAGACGACUCGCUG
modifications: 2'-F C and U; 2'-OH A and G
B19: T17 (ssRNA)
RNA: GGGAGGUGGACGAACUGCCCUACGCACAGACGACUCGCUG
modifications: 2'-F C and U; 2'-OH A and G
B20: T65 (ssRNA)
RNA: ACGAACUGCCCUUUAUACGCACAGACGU
modifications: 2'-F C and U; 2'-OH A and G; 3' idT
B21: T20 (ssRNA)
RNA: GGGAGGUGGACGAACUGCCCUCUACUUUCAUGUUGACGCACAGACGACUCGCUG
modifications: 2'-F C and U; 2'-OH A and G
B22: T58 (ssRNA)
RNA: ACGAACUGCCCUCGCGACGCACAGACGU
modifications: 2'-F C and U; 2'-OH A and G; 3' idT
B23: T61 (ssRNA)
RNA: ACGAACUGCCCCGCACAGACGU
modifications: 2'-F C and U; 2'-OH A and G; 3' idT
B24: T53 (ssRNA)
RNA: ACGAACUGCCCUCAGCUACUUUCAUGUUGCUGACGCACAACGU
modifications: 2'-F C and U; 2'-OH A and G; 3' idT
B25: T54 (ssRNA)
RNA: B24 RNA with A39G
modifications: 2'-F C and U; 2'-OH A and G; 3' idT
B26: T13 (ssRNA)
RNA: GGGAGGUGCCCUCAGCUACUUUCAUGUUGCUGACGCACAGACGACUCGCUG
modifications: 2'-F C and U; 2'-OH A and G
B27: T56 (ssRNA)
RNA: ACGAACUGCCCUACGCACAGACGU
modifications: 2'-F C and U; 2'-OH A and G; 3' idT
B28: T66 (ssRNA)
RNA: ACGAACUGCUCGAUUAUUCGAGCACAGACGU
modifications: 2'-F C and U; 2'-OH A and G; 3' idT
B29: T14 (ssRNA)
RNA: GGGAGGUCAGCUACUUUCAUGUUGCUGA
modifications: 2'-F C and U; 2'-OH A and G
B30: T62 (ssRNA)
RNA: ACGAACUCCCUCGAUUAUUCGACGACAGACGU
modifications: 2'-F C and U; 2'-OH A and G; 3' idT
B31: T96 (ssRNA)
RNA: ACGAACUGCCCUCUUUUUUUUGACGCACCCCCGU
modifications: 2'-F C and U; 2'-OH A and G; 3' idT
B32: T97 (ssRNA)
RNA: B2 RNA with A29C, G30C, A31C
modifications: 2'-F C and U; 2'-OH A and G; 3' idT
B33: T99 (ssRNA)
RNA: B31 RNA with U15A, U18A
modifications: 2'-F C and U; 2'-OH A and G; 3' idT
B34: T98 (ssRNA)
RNA: B3 RNA with A27C, G28C, A29C
modifications: 2'-F C and U; 2'-OH A and G; 3' idT
B35: T101 (ssRNA)
RNA: ACGAACUGCCCUCUUUUUUGACGCACCCCCGU
modifications: 2'-F C and U; 2'-OH A and G; 3' idT
B36: T59 vrt23 (ssRNA)
RNA: B4 RNA
modifications: 2'-F U7,C9,C10,C11,U12,C20,C22,U30; ribo G21; rest 2'-OMe; 3' idT
B37: T84 vrt4 (ssRNA)
RNA: B8 RNA with C33A
modifications: 2'-F C9,C10,C11,C20,C22; ribo G21; rest 2'-OMe; 3' idT
B38: T83 vrt4 (ssRNA)
RNA: B8 RNA with C32A, C33A, C34A, G35A
modifications: 2'-F C9,C10,C11,C20,C22; ribo G21; rest 2'-OMe; 3' idT
B39: T80 (ssRNA)
RNA: ACGAACUGCCCUCGAUCGACGCACAGACGUAAA
modifications: 2'-F C and U; 2'-OH A and G; 3' idT
B40: T71 (ssRNA)
RNA: B3 RNA with U14G, C17A, A18U, U19C
modifications: 2'-F C and U; 2'-OH A and G; 3' idT
B41: T90 (ssRNA)
RNA: B5 RNA
modifications: 2'-F C and U; 2'-OH A and G; 3' idT
B42: T34 (ssRNA)
RNA: ACGAACUGCCCUCGCUACUUUCAUGUUGCGACGCACAGACGU
modifications: 2'-F C and U; 2'-OH A and G; 3' idT
B43: T79 vrt6 (ssRNA)
RNA: ACGAACUGCCCUCGAUCGACGCACAGACGUUUUUU
modifications: mAmCmGmAmAmCmUmGfCfCfCmUmCmGmAmUmCmGmAfCfGfCmAmCmAmGmAmCmGfUmUmUmUmUmU-idT
B44: T83 (ssRNA)
RNA: B8 RNA with C32A, C33A, C34A, G35A
modifications: 2'-F C and U; 2'-OH A and G; 3' idT
B45: T50 (ssRNA)
RNA: ACGAACUGCCCUCGCACUUAUGUGCGACGCACAGACGU
modifications: 2'-F C and U; 2'-OH A and G; 3' idT
B46: T59 vrt5 (ssRNA)
RNA: B4 RNA
modifications: mAmCmGmAmAmCfUmGfCfCfCmUmCmGmAmUmCmGmAfCmGfCmAmCmAmGmAmCmGfU-idT
B47: T59 (ssRNA)
RNA: B4 RNA
modifications: 2'-F C and U; 2'-OH A and G; 3' idT
B48: T25 vrt16 (ssRNA)
RNA: ACGAACUGCCCUCAGCUACUUUCAUGUUGCUGACGCACAGACGU
modifications: rAfCmGrArAfCfUrGfCfCfCfUfCrArGfCfUrAfCfUfUfUfCrAfUrGfUfUrGfCfUrGrAfCrGfCrAfCrArGrAmCrGfU-idT

These binders were tested against T1, von Willebrand factor (VWF) (Homo sapiens, UniProt P04275 P04275:764-2813) (assay: filter; Bmax 85%; 2 mM CaCl2, 37 C). Settings: tags: factor VIII free human purified VWF, Haematologic Technologies Inc; label: 5'-32P.
Experimental: (§1) Affinity constants (Kd values) were determined using double-filter nitrocellulose filter binding assays (Rusconi et al, Thromb. Haemost. $4:841-848 (2000)). All binding studies were performed in binding buffer F (20 mM HEPES, pH 7.4, 150 mM NaCl, 2 mM CaCl₂, and 0.01% BSA) at 37° C. Human purified VWF (factor VIII free) was purchased from Haematologic Technologies Inc. (Essex Junction, Vt.) and used in the double-filter nitrocellulose filter binding assay to determine the Kd of the aptamers. Briefly, RNA were end-labeled at the 5′ end with T4 polynucleotide kinase (New England Biolabs, Beverly, Mass.) and [γ³²P] ATP (Amersham Pharmacia Biotech, Piscataway, N.J.) (Fitzwater and Polisky, Methods Enzymol. 267:275-301 (1996)). End-labeled RNA was diluted in binding buffer F, heat denatured at 65° C. for 5 minutes, and subsequently equilibrated at 37° C. Direct binding was performed by incubating trace ³²P-RNA with varying concentrations of VWF protein in binding buffer F at 37° C. for 5 min. The fraction of the nucleic acid-protein complex which bound to the nitrocellulose membrane was quantified with a phosphorimager (Molecular Dynamics, Sunnyvale, Calif.). Non-specific binding of the radiolabeled nucleic acid was subtracted out of the binding such that only specific binding remained (Wong and Lohman, Proc. Natl. Acad. Sci. USA 90:5428-5432 (1993)).
B1 was tested, and the Kd was 8.4 nM. Work on B2 yielded a Kd of 52 nM. B3 was tested, and the Kd was 1.5 nM. In the case of B4, the Kd is reported as 27 nM. For B5, the Kd was 10.2 nM.

Same assay, conditions: tags: factor VIII free, Haematologic Technologies Inc; label: 5'-32P
B6 gave a Kd of 6.9 nM.

What follows are binders tested against T1, von Willebrand factor (VWF) (assay: filter; Bmax 76%; 2 mM CaCl2, 37 C). Settings: tags: factor VIII free human purified VWF, Haematologic Technologies Inc; label: 5'-32P.
Experimental: as §1
In the case of B7, the Kd is reported as 19 nM. For B8, the Kd was 3.8 nM. B9 gave a Kd of 20 nM.

Same assay, conditions: tags: factor VIII free, Haematologic Technologies Inc; label: 5'-32P
B10 showed a Kd of 1.5 nM. B11 showed a Kd of 5.3 nM. With B12 the Kd was 3.7 nM. Work on B13 yielded a Kd of 6.4 nM. For B14, the Kd was 29 nM.

Each binder was assayed against T1, von Willebrand factor (VWF) (assay: filter; NB; 2 mM CaCl2, 37 C). Settings: tags: factor VIII free human purified VWF, Haematologic Technologies Inc; label: 5'-32P.
Experimental: as §1
B15: no binding.

Same assay, conditions: tags: factor VIII free, Haematologic Technologies Inc; label: 5'-32P
B16: no binding. B17: no binding. B18: no binding. B19: no binding. B20: no binding. B21: no binding. B22: no binding. B23: no binding. B24: no binding. B25: no binding. B26: no binding. B27: no binding. B28: no binding. B29: no binding. B30: no binding.

Each binder was assayed against T1, von Willebrand factor (VWF) (assay: filter; NB; loop CAGA mutated; 2 mM CaCl2, 37 C). Settings: tags: factor VIII free, Haematologic Technologies Inc; label: 5'-32P.
Experimental: as §1
B31: no binding. B32: no binding. B33: no binding. B34: no binding. B35: no binding.

What follows are binders tested against T1, von Willebrand factor (VWF) (assay: filter; Bmax 77%; 2 mM CaCl2, 37 C). Settings: tags: factor VIII free human purified VWF, Haematologic Technologies Inc; label: 5'-32P.
Experimental: as §1
Work on B36 yielded a Kd of 1.7 nM. Binder B37 has a Kd of 22 nM. In the case of B38, the Kd is reported as 20 nM.

Same assay, conditions: tags: factor VIII free, Haematologic Technologies Inc; label: 5'-32P
For B39, the Kd was 6.3 nM. In the case of B40, the Kd is reported as 10 nM. B41 showed a Kd of 3.8 nM.

Each binder was assayed against T1, von Willebrand factor (VWF) (assay: filter; Bmax 61%; 2 mM CaCl2, 37 C). Settings: tags: factor VIII free, Haematologic Technologies Inc; label: 5'-32P.
Experimental: as §1
With B42 the Kd was 10 nM. With B43 the Kd was 60.5 nM. Work on B44 yielded a Kd of 3.5 nM. Work on B45 yielded a Kd of 9.6 nM. For B46, the Kd was 260 nM.

These binders were tested against T1, von Willebrand factor (VWF) (assay: filter; Bmax 78%; 2 mM CaCl2, 37 C). Settings: tags: factor VIII free, Haematologic Technologies Inc; label: 5'-32P.
Experimental: as §1
In the case of B47, the Kd is reported as 8.8 nM. B48 was tested, and the Kd was 4.3 nM.
